Source: US20180362665A1

Experiments:
[1] = biological target: human ADAMTS13 (in normal human plasma) (human) (UniProt Q76LX8); experiment: cell-based or functional assay
[2] = biological target: human ADAMTS13 (in normal human plasma) (human) (UniProt Q76LX8); experiment: sandwich ELISA, antibody coated 10 to 0.02 µg/mL, constant 15% NHP, detection with biotinylated 17G2 and 19H4

Sequence of human ADAMTS13 (in normal human plasma) (human) (Q76LX8 75-1427): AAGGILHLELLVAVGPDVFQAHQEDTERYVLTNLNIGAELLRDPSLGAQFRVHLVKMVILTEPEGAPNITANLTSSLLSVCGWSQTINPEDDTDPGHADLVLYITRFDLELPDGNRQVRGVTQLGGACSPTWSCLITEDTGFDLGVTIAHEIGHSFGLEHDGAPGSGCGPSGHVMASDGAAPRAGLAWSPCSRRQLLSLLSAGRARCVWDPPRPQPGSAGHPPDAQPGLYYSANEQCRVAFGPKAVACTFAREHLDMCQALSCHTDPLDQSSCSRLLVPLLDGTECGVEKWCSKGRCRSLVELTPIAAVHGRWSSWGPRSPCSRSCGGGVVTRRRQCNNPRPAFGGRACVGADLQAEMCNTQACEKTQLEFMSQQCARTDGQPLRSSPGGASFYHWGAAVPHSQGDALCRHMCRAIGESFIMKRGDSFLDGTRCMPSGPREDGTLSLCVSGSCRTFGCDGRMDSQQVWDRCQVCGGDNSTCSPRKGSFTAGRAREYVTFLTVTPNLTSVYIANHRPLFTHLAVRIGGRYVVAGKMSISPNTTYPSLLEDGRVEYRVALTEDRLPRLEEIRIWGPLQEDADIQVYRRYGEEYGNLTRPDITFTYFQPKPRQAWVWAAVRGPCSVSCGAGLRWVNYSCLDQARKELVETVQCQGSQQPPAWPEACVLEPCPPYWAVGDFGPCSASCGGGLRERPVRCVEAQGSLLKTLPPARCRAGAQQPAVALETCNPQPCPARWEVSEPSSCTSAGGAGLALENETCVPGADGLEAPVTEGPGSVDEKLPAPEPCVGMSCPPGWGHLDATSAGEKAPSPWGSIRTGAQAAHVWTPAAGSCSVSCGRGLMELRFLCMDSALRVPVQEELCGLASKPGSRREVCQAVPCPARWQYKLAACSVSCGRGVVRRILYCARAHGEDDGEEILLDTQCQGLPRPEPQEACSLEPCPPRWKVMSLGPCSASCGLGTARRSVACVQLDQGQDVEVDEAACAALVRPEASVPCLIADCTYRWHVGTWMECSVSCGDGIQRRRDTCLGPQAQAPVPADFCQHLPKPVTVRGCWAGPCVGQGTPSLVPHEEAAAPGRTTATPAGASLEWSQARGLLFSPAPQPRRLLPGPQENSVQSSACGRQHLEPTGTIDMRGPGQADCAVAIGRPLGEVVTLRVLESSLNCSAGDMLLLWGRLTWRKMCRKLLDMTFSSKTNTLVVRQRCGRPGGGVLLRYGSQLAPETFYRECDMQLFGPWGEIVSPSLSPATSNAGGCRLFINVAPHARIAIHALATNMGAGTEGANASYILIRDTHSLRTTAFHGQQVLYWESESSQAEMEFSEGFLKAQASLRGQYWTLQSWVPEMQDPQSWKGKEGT

B1: anti-ADAMTS13 monoclonal antibody 17C7 (antibody, V domains shown)
VH: EVQLVESGGDLVKSGGSLKLSCAASGFIFSNYAMSWVRQTPEKRLEWGATITTGGFYTFYSDSVKGRFTISRDNAKNTLYLQMSSLRSEDTAMYYCARHRYDDYYALDYWGQGTSVTVSS
VL: ENVLTQSPAIMSTSPGEKVTMTCNVSSSVSYMRWFQQKSSTSPKLWIYDTSKLASGVPGRFSGSGSGHSYSLTISSMEADDVATYYCFQGNGYPLTFGAGTKLELK
half maximal inhibitory concentration (IC50) of ADAMTS13 activity in normal human plasma, FRETS-VWF73 assay [1]: 0.47 µg/mL
half maximal binding (Kd) [2]: 0.51 µg/mL
